Test results reported in PMC12013497.

Biological target: wild-type Bacteroides fragilis glutamate decarboxylase (BfGADWT) (Bacteroides fragilis)
Assay: SEC

stoichiometry N: 6
Substance: wild-type Bacteroides fragilis glutamate decarboxylase (BfGADWT) (enzyme)
